This is an account of results in patent US20110262929A1 (FORERUNNER PHARMA RESEARCH, published 2011).

Experiment [1] addresses T1, secreted HS6ST2 (sHS6ST2_FLAG) (human, UniProt Q96MM7 170-605).
T1 construct: Purified from CHO supernatant on anti-FLAG gel; also called soluble HS6ST2
T1 sequence: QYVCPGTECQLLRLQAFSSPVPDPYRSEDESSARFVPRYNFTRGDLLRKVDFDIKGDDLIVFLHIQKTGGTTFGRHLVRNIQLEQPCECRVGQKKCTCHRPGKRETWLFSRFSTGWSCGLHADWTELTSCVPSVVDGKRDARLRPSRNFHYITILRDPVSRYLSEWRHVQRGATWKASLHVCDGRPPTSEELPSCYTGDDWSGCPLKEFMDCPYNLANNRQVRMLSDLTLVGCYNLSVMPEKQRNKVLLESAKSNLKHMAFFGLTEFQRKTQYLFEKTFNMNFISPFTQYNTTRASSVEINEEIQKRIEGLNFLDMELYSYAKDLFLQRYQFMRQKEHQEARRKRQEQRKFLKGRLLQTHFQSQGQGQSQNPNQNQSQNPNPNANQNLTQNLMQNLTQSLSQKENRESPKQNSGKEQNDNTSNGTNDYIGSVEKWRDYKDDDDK
As to the kind of experiment: sandwich ELISA: A6 coated at 5 µg/mL as capture, B5-biotin and C8-biotin (3 µg/mL each, mixed) as detectors. (ELISA stands for enzyme-linked immunosorbent assay.)

Experiment [2] has as its target T2, GST_HS6ST2_C1 (human, UniProt Q96MM7 454-539).
T2 construct: Expressed in E. coli BL21 (DE3); whole cell lysate blotted after SDS-PAGE; also called GST fusion of amino acids 308-393 of HS6ST2_N-short; not shown: N-terminal glutathione S-transferase (GST) of vector pGEX-6P-1, with the vector's linker
T2 sequence: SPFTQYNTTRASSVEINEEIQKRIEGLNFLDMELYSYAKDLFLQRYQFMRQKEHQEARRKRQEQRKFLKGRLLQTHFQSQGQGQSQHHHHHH
As to the kind of experiment: Western blot of E. coli whole cell lysate, antibody 10 µg/mL. The method, then:
(§1) GST_HS6ST2_N, GST_HS6ST2_mid, GST_HS6ST2_C, GST_HS6ST2_C1 and GST_HS6ST2_C2 were expressed in BL21 (DE3) Competent Cells (Takara Bio), and the whole cell lysates were resolved by SDS-PAGE electrophoresis and then transferred to PVDF membranes (Immobilon-P, Millipore) and Western blotted with the anti-HS6ST2 antibodies. The anti-HS6ST2 antibodies were used at 10 μg/mL, while the secondary antibody (HRP-anti mIgG, GE Healthcare) was used as a 3000-fold dilution, and blots were detected with ECL Western Blotting Detection Reagents (GE Healthcare). As a result, the anti-HS6ST2 antibodies A1, A10, B5, B6 and C8 bound to GST_HS6ST2_C2, A6 bound to GST_HS6ST2_C1, and C10 bound to GST_HS6ST2_N.

Experiment [3] addresses T1, secreted HS6ST2 (sHS6ST2_FLAG). Briefly: flow cytometry: sHS6ST2_FLAG (50 µg/mL) held on heparan sulfate of DG44 cells, detected with C8 as primary antibody. As to the method: Each anti-HS6ST2 antibody or mouse IgG1 (mIgG1, BD Biosciences Pharmingen) as a negative control was added to a final concentration of 2 μg/mL into 96-well U-bottom plates (Becton Dickinson) containing 5×10⁴ cells suspended in PBS (FACS buffer) supplemented with 0.5% bovine serum albumin and 0.1% NaN₃. After reaction on ice for 1 hour, the cells were washed with FACS buffer. Then, an FITC-labeled anti-mouse antibody (Goat F(ab′)₂ Fragment Anti-mouse IgG (H+L)-FITC, Beckman Coulter) was added as a secondary antibody, and the mixture was reacted on ice for 1 hour. The cells were washed with FACS buffer, and then suspended in FACS buffer containing 10 μg/mL propidium iodide (PI) (Sigma) and assayed by a flow cytometer (FACS Calibur, Becton Dickinson). The assay data were analyzed by CELLQuest software (Becton Dickinson), and the geo-mean of FITC fluorescent intensity was calculated for the PI-negative population of viable cells.
Then, binding of soluble HS6ST2 (sHS6ST2_FLAG) to DG44 cells was evaluated. DG44 cells were enzymatically treated, and then reacted with sHS6ST2_FLAG prepared at 50 μg/mL in FACS buffer at 4° C. for 3 hours. After washing, the cells were analyzed by flow cytometry in the same manner as in Example 3. The anti-HS6ST2 antibody C8 was used as a primary antibody and mIgG1 (BD Biosciences Pharmingen) was used as a negative control. […]
Background: Flow cytometry measures light scatter and fluorescence of single cells or particles in a stream.

Experiment [4] addresses T3, GST_HS6ST2_C2 (human, UniProt Q96MM7 525-605).
T3 construct: Expressed in E. coli BL21 (DE3); whole cell lysate blotted after SDS-PAGE; also called GST fusion of amino acids 379-459 of HS6ST2_N-short; not shown: N-terminal glutathione S-transferase (GST) of vector pGEX-6P-1, with the vector's linker
T3 sequence: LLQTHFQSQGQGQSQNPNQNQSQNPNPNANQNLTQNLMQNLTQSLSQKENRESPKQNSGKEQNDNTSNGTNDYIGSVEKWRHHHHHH
Briefly: Western blot of E. coli whole cell lysate, antibody 10 µg/mL. As to the method: as §1
For orientation: A western blot detects proteins with antibodies after separation by electrophoresis.

B1: anti-HS6ST2 antibody A6 (antibody, mouse IgG1, V domains shown)
VH: EVQLQQSGAELVRSGASVKLSCTASGFNIKDYYMHWVKQRPEQGLEWIGWIDPENDDTEYAPKFQGRATMTADTSSNTAYLQLSSLTSEDTAVYYCNAGYYGSGFAYWGQGTLVTVSA
VL: DIVMTQSPSSLTVTAGEKVTMRCKSSQSLLNSGNQKNYLTWYQQKPGQPPRLLIYWASIRESGVPDRFTGSGSGTDFTLTISSVQAEDLAVYYCQNDYSYPLTFGTGTKLELK
notes: also called clone A6
As for B1, the binding result in experiment [1] and in experiment [2] was “binds” in each case.

B2: anti-HS6ST2 antibody C8 (antibody, mouse IgG1, V domains shown)
VH: EVQLQQSGAELVRSGASVKLSCTASGFNIKDYYMHWVKQRPEQGLEWIGWIDPDNDDTEYAPKFQGKATMTADTSSNTAYLQLSSLTSEDTAVYYCNAGNGNYWFAYWGQGTLVTVSA
VL: DVVMTQTPLSLPVSLGDQASISCRSSQSLVHSNGNTYLHWNLQKPGQSPKLLIYKVSNRFSGVPDRFSGSGSGTDFTLKISRVEAEDLGVYFCSQTTLVPYTFGGGTKLEIK
notes: also called clone C8; C8-biotin
Take B2: the binding result in experiment [3] and in experiment [4] was “binds” in each case.
